The values that follow come from patent US20240059797A1 (GRITSTONE BIO, published 2024).

Numbering of substitutions follows the chain as printed.

What is called Kd is the free concentration of one partner at which half of the binding sites on the other are occupied at equilibrium, for simple one-to-one binding. For orientation: koff means a measure of how fast the partners let go of each other. The kon is a measure of how fast the partners come together.

The chains are these.
B1: G2(1B06) Fab (Fab, V domains shown)
VH: QVQLVQSGAEVKKPGASVKVSCKASGGTFSNYILSWVRQAPGQGLEWMGWINPDSGGTNYAQKFQGRVTMTRDTSTSTVYMELSSLRSEDTAVYYCARGSYGMDVWGQGTTVTVSS
VL: DIQMTQSPSSLSASVGDRVTITCRASQSISRWLAWYQQKPGKAPKLLIYAASSLQSGVPSRFSGSGSGTDFTLTISSLQPEDFATYYCQQSYSTPYTFGQGTKLEIK
notes: Fab
B2: G2(2A03) Fab (Fab, V domains shown)
VH: QVQLVQSGAEVKKPGASVKVSCKASGYTFTSYTVNWVRQAPGQGLEWMGWINPNSGGTKYAQNFQGRVTMTRDTSTSTVYMELSSLRSEDTAVYYCARGGGGALDYWGQGTLVTVSS
VL: B1 VL with R31S, S53T, S93L, T94P, T97S
notes: Fab
B3: G2(2A11) Fab (Fab, V domains shown)
VH: EVQLLESGAEVKKPGASVKVSCKASGYTFTTYDLAWVRQAPGQGLEWMGWINPNSGGTNYAQKFQGRVTMTRDTSTSTVYMELSSLRSEDTAVYYCARANWLDYWGQGTLVTVSS
VL: B1 VL with S28D, S53R, S56A, T97S
notes: Fab
B4: G2(1H01) Fab (Fab, V domains shown)
VH: QVQLVQSGAEVKKPGASVKVSCKASGYTFTRYTINWVRQAPGQGLEWMGWINPNSGGTNYAQKFQGRVTMTRDTSTSTVYMELSSLRSEDTAVYYCARDFVGYDDWGQGTLVTVSS
VL: B1 VL with I29V, S30G, R31N, A50G, S56T, T94A, L104V
notes: Fab
B5: G2(1B12) Fab (Fab, V domains shown)
VH: B4 VH with R31S, T33G, N35T, F100Y, V101G, G102D, Y103L, D105Y
VL: B1 VL with S28N, S30G, R31N, S53T, S56T, T94A, T97S
notes: Fab
B6: G2(1H11) Fab (Fab, V domains shown)
VH: QVQLVQSGAEVKKPGASVKVSCKASGYTFTNYYMHWVRQAPGQGLEWMGMINPSGGGTSYAQKFQGRVTMTRDTSTSTVYMELSSLRSEDTAVYYCARGNPWELRLDYWGQGTLVTVSS
VL: DIQMTQSPSSLSASVGDRVTITCQASQDISNYLNWYQQKPGKAPKLLIYAASSLQSGVPSRFSGSGSGTDFTLTISSLQPEDFATYYCQQYYSYPFTFGPGTKVDIK
notes: Fab
B7: G2(2F01) scFv (scFv, V domains shown)
VH: QVQLVQSGAEVKKPGASVKVSCKASGYTFTSYYMHWVRQAPGQGLEWMGMINPRDDTTDYARDFQGRVTMTRDTSTSTVYMELSSLRSEDTAVYYCALSGNYYGMDVWGQGTTVTVSS
VL: DIQMTQSPSSLSASVGDRVTITCQASQDISNYLNWYQQKPGKAPKLLIYGASRLQSGVPSRFSGSGSGTDFTLTISSLQPEDFATYYCQEGITYTFGQGTKVEIK
B8: G2(1D07) scFv (scFv, V domains shown)
VH: QVQLVQSGAEVKKPGASVKVSCKASGYTFTSYGISWVRQAPGQGLEWMGWISAYNGYTNYAQNLQGRVTMTRDTSTSTVYMELSSLRSEDTAVYYCARDQFYGGNSGGHDYWGQGTLVTVSS
VL: B6 VL with Y91S, Y94T, F96L, P100G, V104L, D105E
B9: G2(2B08) scFv (scFv, V domains shown)
VH: QVQLVQSGAEVKKPGASVKVSCKASGYTLTSHLIHWVRQAPGQGLEWMGWINPNSGGTNYAQKFQGRVTMTRDTSTSTVYMELSSLRSEDTAVYYCARERRSGMDVWGQGTTVTVSS
VL: B1 VL with S28G, R31N, W32Y, S53R, Q55E, T94I, Y96L, Q100G, L104V
B10: G2(2D04) scFv (scFv, V domains shown)
VH: QVQLVQSGAEVKKPGASVKVSCKASGYTFSNFLINWVRQAPGQGLEWMGWINPNSGGTNYAQKFQGRVTMTRDTSTSTVYMELSSLRSEDTAVYYCASERELPFDIWGQGTMVTVSS
VL: B1 VL with R31S, L33V, A50G, S53N, Q55E, T97S
B11: G2(1B08) scFv (scFv, V domains shown)
VH: QVQLVQSGAEVKKPGASVKVSCKASGYTFTNYHMHWVRQAPGQGLEWMGWIHPDSGGTSYAQKFQGRVTMTRDTSTSTVYMELSSLRSEDTAVYYCARNWNLDYWGQGTLVTVSS
VL: B1 VL with R31N, D70Y, T94S
B12: G2(1C06) scFv (scFv, V domains shown)
VH: QVQLVQSGAEVKKPGASVKVSCKASGYTFTDYQMFWVRQAPGQGLEWMGWINPNSGGTNYAQKFQGRVTMTRDTSTSTVYMELSSLRSEDTAVYYCAKGGGGYGMDVWGQGTTVTVSS
VL: B1 VL with S28G, R31N, W32Y, T94D, P95Q, Y96W, L104V
B13: G2(1F12) scFv (scFv, V domains shown)
VH: QVQLVQSGAEVKKPGASVKVSCKASGYTFTDYYMHWVRQAPGQGLEWMGWIYPNTGGTNYAQKFQGRVTMTRDTSTSTVYMELSSLRSEDTAVYYCARDYGGYVDYWGQGTLVTVSS
VL: B1 VL with R24Q, S28D, S30G, R31S, A51T
B14: G2(1G03) scFv (scFv, V domains shown)
VH: EVQLLESGAEVKKPGASVKVSCKASGYTFTSYAMNWVRQAPGQGLEWMGWMNPNSGGTKYAQKFQGRVTMTRDTSTSTVYMELSSLRSEDTAVYYCAREGPAALDVWGQGTLVTVSS
VL: B1 VL with S28G, S53T, S56P, S93I, T94A, Y96F, Q100P, L104V, E105D
B15: G2(1E05) scFv (scFv, V domains shown)
VH: QVQLVQSGAEVKKPGASVKVSCKASGYTFTDYNMHWVRQAPGQGLEWMGWMNPNSGGTNYAQKFQGRVTMTRDTSTSTVYMELSSLRSEDTAVYYCAREEDYWGQGTLVTVSS
VL: B1 VL with S30G, T97S, L104V
B16: G2(1D03) scFv (scFv, V domains shown)
VH: QVQLVQSGAEVKKPGASVKVSCKASGYTFTRYTINWVRQAPGQGLEWMGWINPNSGGANYAQKFQGRVTMTRDTSTSTVYMELSSLRSEDTAVYYCARGDWFDPWGQGTLVTVSS
VL: B1 VL with R31T, S53T, G99A
B17: G2(2A09) scFv (scFv, V domains shown)
VH: QVQLVQSGAEVKKPGASVKVSCKASGGTFSSYAISWVRQAPGQGLEWMGWINPNSGGTNYAQKFQGRVTMTRDTSTSTVYMELSSLRSEDTAVYYCAAMGIAVAGGMDVWGQGTLVTVSS
VL: B1 VL with S93L, T94P, T97S, L104V
B18: G2(1E03) scFv (scFv, V domains shown)
VH: QVQLVQSGAEVKKPGASVKVSCKASGYTFTGYYMHWVRQAPGQGLEWMGWMNPNSGNTGYAQKFQGRVTMTRDTSTSTVYMELSSLRSEDTAVYYCATYDDGMDVWGQGTTVTVSS
VL: B1 VL with R31H, W32Y, A34N, A50G, S93T, Y96W, K103R
B19: G2(2H11) scFv (scFv, V domains shown)
VH: B16 VH with T30S, R31D, T33Y, I34V, N35H, A58T, D100E
VL: B1 VL with R31S, S53T, Y96F, Q100P, L104V, E105D
B20: G2(1G12) scFv (scFv, V domains shown)
VH: B16 VH with R31S, T33L, I34M, N35H, N52S, A58T
VL: B1 VL with R24Q, S28D, R31N, W32Y, A34N, A50G, S53R
B21: G2(1D06) scFv (scFv, V domains shown)
VH: QVQLVQSGAEVKKPGSSVKVSCKASGYTFTSQYMHWVRQAPGQGLEWMGRIIPLLGIVNYAQKFQGRVTITADESTSTAYMELSSLRSEDTAVYYCARDKNYYGMDVWGQGTTVTVSS
VL: EIVMTQSPATLSVSPGERATLSCRASQSVSRNLAWYQQKPGQAPRLLIYGASTRATGIPARFSGSGSGTEFTLTISSLQSEDFAVYYCQHYGYSPVTFGQGTKLEIK
B22: G2(1C03) scFv (scFv, V domains shown)
VH: B16 VH with R31T, T33Y, I34M, N35H, A58T, G99S
VL: DIQMTQSPSSLSASVGDRVTITCRASQSVSNWLAWYQQKPGKAPKLLIYAASSLQSGVPSRFSGSGSGTDFTLTISSLQPEDFATYYCQQSYSTPTFGQGTKLEIK
B23: G2(2A10) scFv (scFv, V domains shown)
VH: EVQLLESGAEVKKPGASVKVSCKASGYSFTDYIVHWVRQAPGQGLEWMGWINPYSGGTKYAQKFQGRVTMTRDTSTSTVYMELSSLRSEDTAVYYCARVLQEGMDVWGQGTLVTVSS
VL: B22 VL with V29I, N31S, W32Y, A34N, A50G, A51V, T94N, L103V
B24: G2(1G07) scFv (scFv, V domains shown)
VH: QVQLVQSGAEVKKPGASVKVSCKASGGTFSNYAINWVRQAPGQGLEWMGWISPYSGGTNYAQKFQGRVTMTRDTSTSTVYMELSSLRSEDTAVYYCARDSGSYFDYWGQGTLVTVSS
VL: B6 VL with S53T, Y91T, S93A, Y94I, F96L, P100G, D105E

One assay concerns the target T1, HLA-A*01:01_… (HLA-PEPTIDE target G2), recombinant biotinylated complex (human, enzymatically biotinylated (BirA)).
T1 construct: also called G2-pHLA
The assay is described as follows: BLI, pHLA on sensor, Fab titrated, 1:1 model.
For B1, the Kd was determined as 44.4 nM, the koff was determined as 0.0323 s⁻¹ and the kon is 1.06e+06 M⁻¹ s⁻¹.

With B2, the Kd stood at 109 nM, the koff is 0.036 s⁻¹ and the kon came out at 332000 M⁻¹ s⁻¹.

B3: the equilibrium dissociation constant (Kd) turned out to be 28.1 nM, the koff amounted to 0.0172 s⁻¹ and the kon turned out to be 633000 M⁻¹ s⁻¹.

In the case of B4, the Kd stood at 15.5 nM, the off-rate (koff) came out at 0.0148 s⁻¹ and the kon was found to be 952000 M⁻¹ s⁻¹.

With B5, the Kd is 22.8 nM, the koff came to 0.00728 s⁻¹ and the kon was 366000 M⁻¹ s⁻¹.

Regarding B6, the Kd amounted to 49.9 nM, the koff is 0.028 s⁻¹ and the kon came to 581000 M⁻¹ s⁻¹.

Another assay deals with T1, HLA-A*01:01_… (HLA-PEPTIDE target G2), …. The experiment in a line: phage panning, scFv ELISA.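 Also: scFv binders from three to four bead panning rounds, tested as PPEs by ELISA on streptavidin plates carrying peptide-HLA complex (2 µg/ml), detected via anti-V5 and HRP anti-mouse.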 A general note: In an ELISA, binding on a coated surface is turned into a signal by an enzyme label.
Method: Phage library screening was carried out according to the overall screening design described above. Three to four rounds of bead-based panning were performed to identify scFv binders to each peptide-HLA complex. For each round of panning, an aliquot of starting phage was set aside for input titering and the remaining phage was depleted three times against Dynabead M-280 streptavidin beads (Life Technologies) followed by a depletion against Streptavidin beads pre-bound with 100 μmoles of pooled negative peptide-HLA complexes. For the first round of panning, 100 μmoles of peptide-HLA complex bound to streptavidin beads was incubated with depleted phage for 2 hours at room temperature with rotation. Three five-minute washes with 0.5% BSA in 1×PBST (PBS+0.05% Tween-20) followed by three five-minute washes with 0.5% BSA in 1×PBS were utilized to remove any unbound phage to the peptide-HLA complex bound beads. To elute the bound phage from the washed beads, 1 ml 0.1M TEA was added and incubated for 10 minutes at room temperature with rotation. The eluted phage was collected from the beads and neutralized with 0.5 ml 1M Tris-HCl pH 7.5. The neutralized phage was then used to infect log growth TG-1 cells (OD₆₀₀=0.5) and after an hour of infection at 37° C., cells were plated onto 2YT media with 100 μg/ml carbenicillin and 2% glucose (2YTCG) agar plates for output titer and bacterial growth for subsequent panning rounds.
96-well and/or 384-well streptavidin coated plates (Pierce) were coated with 2 μg/ml peptide-HLA complex in HLA buffer and incubated overnight at 4° C. Plates were washed three times between each step with PBST (PBS+0.05%). The antigen coated plates were blocked with 3% BSA in PBS (blocking buffer) for 1 hour at room temperature. After washing, scFv PPEs were added to the plates and incubated at room temperature for 1 hour. Following washing, mouse anti-v5 antibody (Invitrogen) in blocking buffer was added to detect scFv and incubated at room temperature for 1 hour. After washing, HRP-goat anti-mouse antibody (Jackson ImmunoResearch) was added and incubated at room temperature for 1 hour.
On to B7, for which the binding result was “binds”.

Take B8: the binding result was “binds”.

With B9, the binding result was “binds”.

For the molecule B10, the binding result is “binds”.

As for B11, the binding result is listed as “binds”.

For the molecule B12, the binding result is on record as “binds”.

As for B13, the binding result was “binds”.

Take B14: the binding result is recorded as “binds”.

For the molecule B15, the binding result is recorded as “binds”.

With B16, the binding result was “binds”.

In the case of B17, the binding result was “binds”.

For the molecule B18, the binding result is listed as “binds”.

In the case of B19, the binding result was “binds”.

Consider B20, for which the binding result is “binds”.

Take B21: the binding result was “binds”.

As to B22, the binding result was “binds”.

With B23, the binding result is “binds”.

On to B24, for which the binding result was “binds”.
